The text below walks through data of PMC9234029, “Voltammetric lipase activity assay based on dilinolein and a modified carbon paste electrode” (Analytical and Bioanalytical Chemistry, 2022).

Substrate in the data set: CCCCC/C=C\C/C=C\CCCCCCCC(=O)OCC(O)COC(=O)CCCCCCC/C=C\C/C=C\CCCCC
The data set can be described thus: differential pulse voltammetry of released linoleic acid, CoPC/MWCNT carbon paste electrode. Conditions: sodium borate 0.1 M pH 9, room temperature, 25 min, Lineweaver-Burk plot, substrate in paraffin oil. The class given is biochemical, Sus scrofa.

B1: porcine pancreas lipase (PP-L) (Sus scrofa) (protein)
chain: SEVCFPRLGCFSDDAPWAGIVQRPLKILPWSPKDVDTRFLLYTNQNQNNYQELVADPSTITNSNFRMDRKTRFIIHGFIDKGEEDWLSNICKNLFKVESVNCICVDWKGGSRTGYTQASQNIRIVGAEVAYFVEVLKSSLGYSPSNVHVIGHSLGSHAAGEAGRRTNGTIERITGLDPAEPCFQGTPELVRLDPSDAKFVDVIHTDAAPIIPNLGFGMSQTVGHLDFFPNGGKQMPGCQKNILSQIVDIDGIWEGTRDFVACNHLRSYKYYADSILNPDGFAGFPCDSYNVFTANKCFPCPSEGCPQMGHYADRFPGKTNGVSQVFYLNTGDASNFARWRYKVSVTLSGKKVTGHILVSLFGNEGNSRQYEIYKGTLQPDNTHSDEFDSDVEVGDLQKVKFIWYNNNVINPTLPRVGASKITVERNDGKVYDFCSQETVREEVLLTLNPC
For B1, the Km was 290 µM.

As a reminder, the Km is the concentration of substrate that gives half-maximal velocity.
